Data as given in patent US20100174053A1 (published 2010).

Assays:
sCD32B-Ig = biological target: T1, sCD32B-Ig (UniProt P31994 43-217); assay: sandwich ELISA: sCD32B-Ig coated, diabody, sCD16A-Biotin probe, streptavidin-HRP
T1 construct: extracellular domain; not shown: Ig part of sCD32B-Ig; not described
T1 sequence (looked up): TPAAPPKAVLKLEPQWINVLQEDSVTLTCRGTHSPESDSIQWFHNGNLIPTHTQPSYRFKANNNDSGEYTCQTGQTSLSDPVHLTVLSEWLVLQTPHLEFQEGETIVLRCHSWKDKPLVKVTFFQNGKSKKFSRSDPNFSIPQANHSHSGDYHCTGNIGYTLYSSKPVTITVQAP
Method: The plate was then incubated at room temperature for 1 hour.

sCD32A = biological target: T2, sCD32A (UniProt P12318 34-217, limits assumed); assay: SPR (BIAcore), receptor immobilised
T2 construct: extracellular domain; Negative control surface in SPR; also called control receptor
T2 sequence (looked up): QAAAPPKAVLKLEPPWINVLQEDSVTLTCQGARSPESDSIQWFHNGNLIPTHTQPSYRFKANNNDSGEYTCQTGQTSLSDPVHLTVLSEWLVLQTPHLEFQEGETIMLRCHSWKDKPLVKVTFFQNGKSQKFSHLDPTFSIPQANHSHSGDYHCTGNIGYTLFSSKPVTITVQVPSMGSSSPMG
Method: (§1) (A) Binding to sCD16; (B) Binding to sCD32B and (C) Binding to sCD32A. Diabodies were injected at a concentration of 100 NM, and scFv at a concentration of 200 nM, over receptor surfaces at a flow rate of […] for 60 sec.
(§2) sCD16A, sCD32B or sCD32A (negative control) were immobilized on one of the four flow cells (flow cell 2) of a sensor chip surface through amine coupling chemistry (by modification of carboxymethyl groups with mixture of NHS/EDC) such that about 1000 response units (RU) of either receptor was immobilized on the surface. Following this, the unreacted active esters were “capped off” with an injection of 1M Et-NH2.

soluble CD32B (sCD32B) = biological target: T3, soluble CD32B (sCD32B) (human, UniProt P31994 43-217, biotin where used as the ELISA probe); assay: SPR (BIAcore), receptor immobilised
T3 construct: extracellular domain; also called soluble CD32B ectodomain; sCD32B-biotin
T3 sequence (looked up): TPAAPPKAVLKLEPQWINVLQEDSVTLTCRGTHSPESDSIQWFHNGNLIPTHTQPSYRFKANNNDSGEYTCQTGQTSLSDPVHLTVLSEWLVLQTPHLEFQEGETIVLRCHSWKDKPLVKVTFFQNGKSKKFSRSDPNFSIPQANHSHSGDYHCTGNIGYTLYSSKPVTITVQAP
Method: as §1, §2

soluble CD16A (sCD16A) = biological target: T4, soluble CD16A (sCD16A) (human, UniProt P08637 17-208, biotin or HRP conjugate where used as the ELISA probe); assay: SPR (BIAcore), receptor immobilised, diabody 6.25-200 nM as analyte, bivalent analyte fit
T4 construct: extracellular domain; Printed only as soluble CD16A; also called hCD16A; hCD16
Method: Diabodies were injected at concentrations of 6.25-200 nM over receptor surfaces at a flow rate of […] for 180 sec.
as §2

T4 sequence (P08637 17-208): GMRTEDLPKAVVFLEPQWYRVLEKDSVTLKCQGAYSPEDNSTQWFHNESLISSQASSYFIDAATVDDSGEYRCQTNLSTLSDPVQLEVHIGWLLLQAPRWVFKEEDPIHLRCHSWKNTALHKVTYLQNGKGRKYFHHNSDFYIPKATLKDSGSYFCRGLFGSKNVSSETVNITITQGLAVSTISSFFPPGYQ

B1: h3G8 covalent monospecific diabody (CMD) (other)
chain: DIVMTQSPDSLAVSLGERATINCKASQSVDFDGDSFMNWYQQKPGQPPKLLIYTTSNLESGVPDRFSGSGSGTDFTLTISSLQAEDVAVYYCQQSNEDPYTFGQGTKLEIKGGGSGGGGQVTLRESGPALVKPTQTLTLTCTFSGFSLSTSGMGVGWIRQPPGKALEWLAHIWWDDDKRYNPALKSRLTISKDTSKNQVVLTMTNMDPVDTATYYCAQINPAWFAYWGQGTLVTVSSLGGC
notes: Covalent homodimer of construct 3; also called h3G8 CMD; h3G8 diabody
sCD32B-Ig
  binding result: no binding (tested: 0.5 µg/ml to 0.001 µg/ml)
sCD32A
  binding result: no binding (tested: 100 nM)
Soluble CD32B (sCD32B)
  binding result: no binding (tested: 100 nM)
Soluble CD16A (sCD16A)
  Kd: 18 nM
